# Source: the DeepSol protein solubility set
# Assay: soluble on expression in E. coli; label from the status in PepcDB or PDB records
row,Sequence,soluble on expression in E. coli
1,MAEKMQAIMKTKPAYGAELVEVDVPKPGPGEVLIKVLATSICGTDLHIYEWNEWAQSRIKPPQIMGHEVAGEVVEVGPGVEDLQVGDYISVETHIVCGKCYACKHNRYHVCQNTKIFGVDMDGVFAHYAIVPAKNAWKNPKDMPPEYAALQEPLGNAVDTVLAGPIAGRSTLITGAGPLGLLGIAVAKASGAYPVIVSEPSEFRRKLAKKVGADYVVNPFEEDPVKFVMDITDGAGVEVFLEFSGAPKALEQGLKAVTPGGRVSLLGLFPREVTIDFNNLIIFKALEVHGITGRHLWETWYTVSSLIQSGKLNLDPIITHKYKGFDKFEEAFELMRAGKTGKVVFFPHKG,soluble
2,MALGETKGIILFTKDFKEKDKLVKIFTESYGKLMFFVKGAHRKNNPLLPAILPFTEAVYIGNFREEGLSFLNSSKEVQPFRNIQQDIFINAYGTYILNLVDAAIEDQHYDPNLFQFTHMALSALNEQKDPEIITNIFEIQLLERFGVRPEWHHCVACGETQGKFDYSSKYSGVLCEKHWHLDEQRYHADPRAIHFIRLFSQVSYEKVQNIQVKEETKKSIRETIDMLYDEYVGLHLKSKKFIDQMKTWENTLKIPPRKKEEK,not soluble
3,MSGATEMAVSPDGKEVAFILRGDVYVTSVEYKTTKQVTNTPCQERGIDFAPDGRTLVYASERGGLWQLYTSTIVRKDEKQFTYATELKEERLTNSDIASFNPKYSPDGKEIAFLENRTAIRVINLKTKKVRTVMDAQYQYSYSDGDQWFEWSPDSKWILSEFIGIGGWNNKDIVLLNADGKGEMHNLTESGYSDGNAKWVLGGKAMVWFSDRAGYRSHGSWGAQYDAYIMFFDVDALEHHHHHH,not soluble
4,TNRLSAYTSHRISKYNDRQTNTSLDINIGKFSSNTNYFFYHTDGWQNSPFEIKKKKGSGEPVLEETYKKTFRAQENQGVSQSLSYYATNNLSFSGNVQYNKRQIFTPTFSEKKAYDMDYRALTASLGTNYLFPNGLHTLSFDAVYDRFRFGYLYHDKDSSESLINNQGQTEQPTFFPGQLRNKNDQIRYTAEARGVFTLPYAQKLTGGLEYFREELISPYNLITDKADASTLSAYVQDEWKPLDWFNMTAGFRLVHHQEFGTRMTPKVSILAKYGPLNFRATYANGYKTPTLKELFARNELTTMGSHNLYLGNADLKPQMSDYYALGLEYNQGPISFSATVYDNELRNLISFMDIPTSPEHEAQGIKKTKQYANIGKARSRGLDVLCDASIGWGIKLGAGYSLVEAKNLQTDEWLEGAARHRANVHADWVHYWGQYRLGVSLFGRIQSERYYKDGNAPDYTLWRLATSHRFAHFRHIILDGTLGIDNLFDYVDDRPMGVNYATVTPGRTFFAQIAIRFNN,not soluble
5,MGGMHAHVILAAGQGTRMRSRLPKVLHPLLGKPMLLYALEAALALKPERLVVVVGHGGEKVVEALEGYPVEVAWQKEQLGTAHALLQAEGLLRDFPGPFLVTQGDTPLLSPRTLEALLRRVREGAGMALLTAELPDPTGYGRILREGEEVLGNVEEKDAPPEVRAIREVNAGAYAFDGFLFQALKEVRNENAAREYYLPDLIAIYRAHGRRVLAVRGVAEEALGVNTREELARVEGVLLRRLRAEWMGKGVRMILPETIYLEPSVELAPDVTLWPGAVLKGKTRIGEGCEVGPYAVLEDTVLEPGAKVLAHTVAQGAHLHPGASAGPFARLRPGAVLMEEVHVGNFVEVKNSLLHKGVKAGHLAYLGDAEVGEGTNIGAGVITANYDGKRKHKTEIGKKAFIGSNSVLVAPVRVGDRALVGAGSVITQDVPEGALAVARERQKNLEGYALRKLGEG,soluble
6,MGHHHHHHSHMGAGLSADRRRSLCAREFRKLGFSNSNPAQDLERVPPGLLALDNMLYFSRNAPSAYSRFVLENSSREDKHECPFARGSIQLTVLLCELLRVGEPCSETAQDFSPMFFGQDQSFHELFCVGIQLLNKTWKEMRATQEDFDKVMQVVREQLARTLALKPTSLELFRTKVNALTYGEVLR,soluble
7,MPLALGGTPFEKHVWARLMEIPLGQTRAYGDLAREMERPEVVRAVGRANGANQLAIVVPCHRILGADGSLTGYGGGLWRKQWLLRHEEKIGTETRMEETALEHHHHHH,not soluble
8,MGSDKIHHHHHHMLPQGVKDQKYDQNENIPVSWNCEESDQNHNKQKRNGSPAEGKAQKGGKETQNVLEDVVPEDAEKGKNIDHSTTPMTITLSGTSRVTFSRKYSSSRPATVPMNRYSLKATFHFSLSKYTFQPVTSMSSITESLGTRSPLTTPTTDSRSFSTLTFSTKSSENTLITFEIGPFSTTIPRNLFSSGSRTMAPSSASPRM,not soluble
9,GSSRGIPPKIEALPSDISIDEGKVLTVACAFTGEPTPEVTWSCGGRKIHSQEQGRFHIENTDDLTTLIIMDVQKQDGGLYTLSLGNEFGSDSATVNIHIRSI,soluble
10,PLLIKNGEIITADSRYKADIYAEGETITRIGQNLEAPPGTEVIDATGKYVFPGFIDPHVHIYLPFMATFAKDTHETGSKAALMGGTTTYIEMCCPSRNDDALEGYQLWKSKAEGNSYCDYTFHMAVSKFDEKTEGQLREIVADGISSFKIFLSYKNFFGVDDGEMYQTLRLAKELGVIVTAHCENAELVGRLQQKLLSEGKTGPEWHEPSRPEAVEAEGTARFATFLETTGATGYVVHLSCKPALDAAMAAKARGVPIYIESVIPHFLLDKTYAERGGVEAMKYIMSPPLRDKRNQKVLWDALAQGFIDTVGTDHCPFDTEQKLLGKEAFTAIPNGIPAIEDRVNLLYTYGVSRGRLDIHRFVDAASTKAAKLFGLFPRKGTIAVGSDADLVVYDPQYRGTISVKTQHVNNDYNGFEGFEIDGRPSVVTVRGKVAVRDGQFVGEKGWGKLLRREPMYF,soluble
11,CPRMGHVFPLETRPYNQGSRLTAYELVYDKIPSTLITDSSIAYRIRTSPIPIKAAFVGADRIVRNGDTANKIGTLQLAVICKQFGIKFFVVAPKTTIDNVTETGDDIIVEERNPEEFKVVTGTVINPENGSLILNESGEPITGKVGIAPLEINVWNPAFDITPHELIDGIITEEGVFTKNSSGEFQLESLF,soluble
12,MGSDKIHHHHHHMGDKYLTLSELNLEGQLLGFVGGEPGKYKYLQLAVPSGNVEIKLPKELRRSLSLSLVPGQHIRICGHSKVDSRTSKIKIKAYRVTPIDGCPKQDLPPQIKARIMVCQKGGCLKRGGKGLLSDLEKTLCDRGLLDKVTIEHTSCQKCCNSAPNCVLHLGKKKYKNIHPDAIASLLESHLTE,not soluble
13,MAHHHHHHMPFTEVYGVEQFRDIANDPTLTVVCFSAVWCGPCKTIEKDLDRLTYEFASVRFAKVDADNNTDIVSKCRVMQLPTFMLVRAGQMLGYVIGADLAQLKAKIREEANKS,soluble
14,MSLPRGLELLIAQTILQGFDAQYGRFLEVTSGAQQRFEQADWHAVQQAMKNRIHLYDHHVGLVVEQLRCITNGQSTDAAFLLRVKEHYTRLLPDYPRFEIAESFFNSVYCRLFDHRSLTPERLFIFSSQPERRFRTIPRPLAKDFHPDHGWESLLMRVISDLPLRLRWQNKSRDIHYIIRHLTETLGTDNLAESHLQVANELFYRNKAAWLVGKLITPSGTLPFLLPIHQTDDGELFIDTCLTTTAEASIVFGFARSYFMVYAPLPAALVEWLREILPGKTTAELYMAIGCQKHAKTESYREYLVYLQGCNEQFIEAPGIRGMVMLVFTLPGFDRVFKVIKDRFAPQKEMSAAHVRACYQLVKEHDRVGRMADTQEFENFVLEKRHISPALMELLLQEAAEKITDLGEQIVIRHLYIERRMVPLNIWLEQVEGQQLRDAIEEYGNAIRQLAAANIFPGDMLFKNFGVTRHGRVVFYDYDEICYMTEVNFRDIPPPRYPEDELASEPWYSVSPGDVFPEEFRHWLCADPRIGPLFEEMHADLFRADYWRALQNRIREGHVEDVYAYRRRQRFSVRYGEMLFEGHHHHHH,not soluble
15,AHHHHHHGSYVIIMGAGRIGTLVAKMLENSGHDVAIIEMNKDRARAVSDIVSGLVIEGDATDQNILESANVRNADAFVALTGKDDANILACILAKHLNPRIMTILRITDPRKKKIFEEVKDLKKYFDVVVSPEDIAANYIFRVVITPGFDRVLLPREGAEIIQFHIDENSKVAGKAVKDLNLPRDSLIIAIYDEKGNLIIPSGETILPKRGTVVVFAKDSALKEIKKIMEEKVEESEE,soluble
16,MGSDKIHHHHHHMAVRMLDIARRFNMLSERIRRESVELGIPAIDPEDGLILSSAAFYVGGGTGSYVDAGAGIGYSTIWIAYGAYHRCTDITCKIVAIEYDVELASILSRNLREVEAMFRGRIEFEVVSGDALDYFSRLEEKGREVFDMAFVDIEKGDYPEALERLENLLTAGGVAAFYNAFQPPPPPLFFDMVSKRPWKPVVLPTPAGLLLAVKTAG,not soluble
17,VKFIADPSGVDVLEEVEVFALGPTEVIVVGRLEFIYHEASDEYLEKFEGKLKKGVWYGTNIAVIFTLYRPAGSMEVDKIILDNTFEEIL,not soluble
18,GMEAKLSSIEIPVGQDELSGTLLTPTGMPGVLFVHGWGGSQHHSLVRAREAVGLGCICMTFDLRGHEGYASMRQSVTRAQNLDDIKAAYDQLASLPYVDAHSIAVVGLSYGGYLSALLTRERPVEWLALRSPALYKDAHWDQPKVSLNADPDLMDYRRRALAPGDNLALAACAQYKGDVLLVEAENDVIVPHPVMRNYADAFTNARSLTSRVIAGADHALSVKEHQQEYTRALIDWLTEMVVGRRIALAKEVVAARKQLLKEQQGDAVSLPGQGSREFRGDIRAVEKTSA,soluble
19,MSLNHLNDKVNEIKDNFYGLIGHAYLEKYITKPIVDEDKLRFLYTMLAEKLPKKDTKLFTLSALLVDAALEIHEAVSLHNIQTDPIKKNRQLNVLAGDYYSSLYYYLLADSRHLPIIQVFSHSIQEINEYKMKLYDGKNIDFDEVKNNVDKVDTFLLQNLAEHFQLTTWKKAISVFFHLKRLVHEREAWINGKATPLMKAIVTELFGSNRPVDELKKDDQLQVLELWEEKVEEGKDHLLEHVKALLPKFERFFVDHLNDLFGPDYIHEKVAEEGEGHHHHHH,soluble
20,MGSDKIHHHHHHAQQRTEYNRKGDEAMKRLDYSDAKMWYEEGVSQCDAYSIDQLTTIWLSNERMRPSMRSLMNKCLNCLTVKATEDDPDAISKLIIYYSEGIGTPKSEELATYWKEYQEILLKPAEPAAQPIDSAAVSPKKRMEFFAGYSYSIESPYGITVGGMGQRFGWYVRFKTNMSFMNYTDECNNQGQIIKFSNSEGESYELNTGKSSKTNSIAGTAGLIVKCFPWLYASVGLGYGERALLHSFTTHSYENYDSTREVWCRNIDSSYKGVAAEVDLMMKITNSVFISVGCNTVNFKYLDLNAGLGVFF,not soluble
21,MRFIADLVHEKKQLVEKAEAILNEAEKAGGSLTKEQEQQFNRYKDRITRINDSIDEELSKIRTSEPILNMPHNPMAREDVSKIPVTKAISKSFRGMFYGNETVSLSNNGFHSMDEFLRTLHSGRADNRLINASMVEGIPEFGGYSVPEEYGAFLMDKSLENEIIRPRATVWAMGSETKKVSAFDGADRTNHLFGGISGEWLEEGQTGTRKTAKLRLIQLKAKKLACFSQASNELIADGMSFEEMLAGALIKGLGWYMDYAFINGTGEGQPLGIINDPALITVNKEASQEPATITYQNVVNMFSRLAPSCFTNAVWLANPSVIPQLLTMTITIGTGGAQIPVFREESGKFTLLGKEVLFTEKCPTLGAKGDLILADLSQYAIGMRKEIALDRSNVPGWMEDMTDYRVIVRVDGQGTWDKPITPKNGATLSWAVALEAR,soluble
